Reference: the DeepSol protein solubility set

Assay: soluble on expression in E. coli; label from the status in PepcDB or PDB records

Sequence	soluble on expression in E. coli
MGSDKIHHHHHHMHLGKYIKKYRDTNNLSMAEFAKESGISKAYVSILEKNRDPRNGKEIIPSIPIIKKVSDTIGISFDDLLNSLDENQIVALNETKTEKNLTSSTLQKITSTSSQLEQPRQEKVLSFANEQLEEQNKVVSMFDRKVEETENYITDYVEGLVAAGLGAYQEDNLHMEVKLRADDVPDKYDTIAKVAGNSMEPLIQDNDLLFVKVSSQVDMNDIGIFQVNGKNFVKKLKRDYDGAWYLQSLNKSYEEIYLSENDNIRTIGEVVDIYREN	not soluble
MTTQIELGDITVDVVLKDIKNIHLSVYPPNGRVKISAPLRMDIDTIRVFAISRLGWIKQQRKKFQEQERETPREYLDLESHYVWGKRYLLKVIEVNEAPSVELKHSKMILRVRPGTDDKKRQSIIDAWYREQLKKAIPPLIARWEPLLGVKVERFFVQRMRTKWGSCNHKARNIRLNTELAKKPEECLEYTIVHEMAHILEPTHNSHFITLMDQFMPKWQFCRDRLNQLPVRHEDWIYLEHHHHHH	soluble
MDIKELHVKTVKRGENVTMECSMSKVTNKNNLAWYRQSFGKVPQYFVRYYSSNSGYKFAEGFKDSRFSMTVNDQKFDLNIIGAREDDGGEYFCGEVEGIIIKFTSGTRLQFEGSNEGSKSSDGEGSSCPDQMHVLVW	soluble
DFELLHKLGGGNYGDVHLASVKDCNFVCALKRLSIKKLADFDIATQLRREIEIAFNTRHKYLLRTYAYFFDETDIYLIMEPCSNGMLYTELNRVKCFAPPTAARYVAQLAEALLYLHQHHILHRDIKPENILLDHNNNIKLADFGWSVHDPDNRRKTSCGTPEYFPPEIVGRQAYDTSADLWCLGIFCYELLVGKTPFVGKDTDQICKNIHSMHFKIPENIPSEAKDLIANLLLRDGSRRLALHRVVNHQFLLKYYYLPNNL	soluble
MMTDKLNLNVLDAAFYSLEQTVVQISDRNWFDMQPSIVQDTLIAGAIQKFEFVYELSLKMMKRQLQQDAINTDDIGAYGFKDILREALRFGLIGDMSKWVAYRDMRNITSHTYDQEKAMAVYAQIDDFLIESSFLLEQLRQRNQYD	soluble
MAFIESWAKRTWLVPPQMQLYVDYKIKVTEILTNYTSIEEIHSYSIDESFLDITESLNFFYPDIRNRYEQMNLITLDLQREILDKLGLYVTVGMGDNPLLAKLAMDNYAKHNQNMRALIRYLEHHHHHH	not soluble
MGSDKIHHHHHHMKTHIFLYPGEGIGPELFESLRAFFSLFNDKLEYHYLASFQDLSSLNKPYYVLCGPFASEQEQTDVLNPLHPLYAHTLVPHDKKGNASILALPLTQKQTTGALKDLSVIAACFDPAHKVVMVQQYQEQPQIWEDAMKAWTKLAFSNHDWKFEDANVLSFIKHSQYSKANQVVSSMEGANVLKALYASIYKSLNRAHTLIEVEDGYITMPMHGHAPDIVGMGIANPYALLMAFCRLLTVAGYEELAQQVENQIESAFYENRDQTTPDQGGVLNTEKYMAMMVECINL	not soluble
SRSYRFSDYLHMSVSFSNDMDLFCGEDSGVFSGESTVDFSSSEVDSWPGDSIACFIEDERHFVPGHDYLSRFQTRSLDASAREDSVAWILKVQAYYNFQPLTAYLAVNYMDRFLYARRLPETSGWPMQLLAVACLSLAAKMEEILVPSLFDFQVAGVKYLFEAKTIKRMELLVLSVLDWRLRSVTPFDFISFFAYKIDPSGTFLGFFISHATEIILSNIKEASFLEYWPSSIAAAAILCVANELPSLSSVVNPHESPETWCDGLSKEKIVRCYRLMKAMAIENNRLNTPKVIAKLRVSVRASSTLTRPSDESSFSSSSPCKRRKLSGYSWVGDETSTSN	soluble
MSEQIRLENLTIFMQRRAVKHVYLRVHPPDGRVTLVAPTGMRLEVVRAFVTAKLDWIHKQQAKLQAQVREVPRQFIGGESHTVWGRHYVLQVVEKSAGPCVLMDQQTITLQVRPGSDLFKRAAVMHAWHKSLLHAVVPDLIGKWQDRLGVSVSAYFLQQMKTRWGSCNTRRRHIRLNTDLVRKPQDLLEYVVVHELVHLIEPSHNKRFVGLMDQHYPAWREATAELNQIPLSAIRPRGLEHHHHHH	not soluble
MSAALVAQQVATLREQGFVVVRNFASPPVRQALRELALQHLAQTVDPVEYEADLKYPGAPSSRLAAGGQTVRRLLDAYGRDQRFRDWATQAAIGAFLRAYFQDTPVLSTVHHNCIMTKHPAFGSLTGWHQDIRYWSFSDDDLVSCWLALGDERADNGGLYFVPGSHTASFMPEQYDARKFFRDDLPQNQEWIGRAVCPELQAGDVVFFHCRTLHAARQNATDTVKLSLVHTYHPASCHPLPGTRSAGSPGVPLPLEHHHHHH	soluble
MGNIGSPPKFDEYPNGNEEPRRVLRLNVYFDNPVQNKDGAYDDRGGFWAPVDWWHRDAERWATLFAKGMRVAVRGHLERDDWTDGDGEPHTTYKVDARSVGILPYRLDAVHLSPLEHHHHHH	not soluble
MAIRVIGTGFGRTGTDSMREALTILGFGPCHHMSEVMGNEDQKRLWRALAKGAAPDWNQLFAGYASCIDWPSAHYWRDLIEFYPKARVILTYRSPESWWASFEKTILAGISQSTDQESLGLALISRQVFDGRPHDRANAIAVYEANVRAVIATVPPSRLLVHNLGDGWKPLCLHLDVPVPDKPYPNRNTTKDFQSALAQN	soluble
MARPRKPLLSTDRIVETARALVDAEGLAAVSTRRLAAELGVSGPSLYNHFRTKDEILEAVADSVSAQVDLSMFEDGREWRTALHDWAVSYRTALRDHPNIVPVLAHGPGRRPAALHLADAVYGAMVRAGWPAAQATSIGALMRYFVMGSALGSFAGGFVDDAGAYDPADYPHLQQAHLLAEQQEKIDERAFETGLTALLDGLAQQYAQVAQGV	not soluble
MSGFKWSPDQKWISFLAVPTASWSADSNTLCLVRADGSRFEKVDQMLLNAQWFQWAPSKNILAYIEGSGRVALENKHLKVKELPALQQNIFTPKGYVDWDFVWKNDRVIIVSRAKEAGIETPPEKRPLPSLYEVDSTSNAQHQITKKTNKQGDYHPIFMKKSNQLIWIRSDRKKADVWLAHKDRKQEKKWIENIDVPAWYYEKWNWGNVISVKEELEHHHHHH	not soluble
MGSDKIHHHHHHMRVSQRVVMSMTTPIDQFKGKQLDIINWWRRYPDKQTIIADGAVRSGKTFAMSISYVLWSMIVFDREQFGIAGKTIGSLRRNVIRPLKQTLQQVGFSVVDRRSENMLEISLDGRTNLYYLFGGKDESSQDLIQGITLAGMFFDEAALMPQSFVNQATARVSVTGGKYWFNMNPEGPYHWFKTDWIDQADDKRALRLHFVMTDNPSLSDEVIDRYEHMYSGVFYQRYILGQWVLADGIVYDNFDKDEMVSNPSQQPSRYYVSVDYGTQNPTVFLLWGKCGSVWYCLKEYYYDGRHSSRQKTDDEYARDFSQFVGDIRCEVIVDPSAASFIVKLRERRYRVIKADNDVLNGIRETQTAMNSGEIKFTPGLTNLFKEFASYVWDDKASQKGEDKVVKAHDHAMDAMRYFVMQVIKRRNAAHTFKNTSKYF	not soluble
MRGKRVVLPDKDHQACGLFGVIDRSGRRFSGEMAINAMINMKVRGNGLGGGFAAYGIYPEYKDYYALHVMFQDWDMEAKHRVDEFLDANFDVVYAEEIPVNPEANVASPPLFWRYFVSPNKKGDEKKLSDDDYVVKKVMEINTKINNAYVVSSGKDMGVFKGVGFPEDIAEYFMLAEEYKGYMWTAHSRFPTNTPGWWGGAHPFCILDWTVVHNGEISSYGTNKRYLEMFGYYCTLLTDTEVMAYAVDLLMRKQGLPIEIVSKIFAPPMWDHIDIMDEKKKKFYTALRMNYGPLLINGPWTIVVARHGEMFGITDRIRLRPITSGEKGDLLFVSSEESAIRAVCPDLDRVYTPMGGEPVIGRLKSREKELAKQLSEVE	not soluble
MNIVPILLIRFYQSFISPLLGPSCKYHPTCSNYAIEAFRQHNFFYASWLTVWRVLRCNPFSKGGYDPVPPKSVKSAGNSKDSKLEHHHHHH	not soluble
MGSDKIHHHHHHMPANPLPDDDLADSDTDDTGSGEHGEGGEKVRSGIQSIEVGFRLLEVLTSEPRAMMLRDLAQRAGMSPAKAHRYLVSFSRLGVVSQDPVSGRYELGGFALQMGLARLARVDGVKLARIALTELRDRVDQTVGIAVWGNQGPTIVHWMESSHPAKASLKLGDVMPLLGSATGLLFAAYLPRSKTAAMLERELADTRRSPHHGGPRTLEEVDAVLADVRAHQAARVEGMLLPTIHAFCMPVFDAVGELALAIVALGQEGTFDIAWGGEMDTALRACAQKLSYELGYSPDARDA	not soluble
MINANRPIINLDLDLLRTFVAVADLNTFAAAAAAVCRTQSAVSQQMQRLEQLVGKELFARHGRNKLLTEHGIQLLGYARKILRFNDEACSSLMFSNLQGVLTIGASDESADTILPFLLSRISSVYPKLALDVRVKRNAYMVDMVKSQEVDLVVTTNQPHSLDCLNLRTSPTHWYCAAEYVLQRGEPVPLVLLDDPSPFRDMVLETLNAAGIPWRLAYVASTLPAVRAAVKAGLGVTARPVEMMSPDLRVLGAADGLPPLPDTEYLLCRDPNSQNELAMVIFHAMESYQNPWHYNQFSAEGGDDPLMVEGGFE	not soluble
MAETDPKSVQDLTAVVQTLLQQMQDKFQTMSDQIIGRIDEMSTRIDDLEKNIADLMTQAGVEEIEGENKVKEGDAS	soluble
MSLDCFAPAVLGMPAFDRHATWQAMHATTHFIGRVGVAQVGLCAMNLALWDIQLKIEEVPLWRHLGPVKDRVKAYNTDGGWLTWTTAEVIDDMHHIINRGFDAVKMKLGRSDPMEDFQRVRAVRQAIGDDIKLMVDVNTVWDLETAIQWGKRLEELNVEWLEEPLHPFDVRSHAALAKAIRTPIAVGETVYTVYGFREYIAQEAAGVLQADVTKLSGIEEWLEVAAIGQTHGLQVIPHTNVQQNVHVQLAAATTNTPMIECCYESLFEIWENPVRVVDGFYTLPDVPGINGKLTETVLEKFRVSEGHHHHHH	soluble
MGSDKIHHHHHHMLDAQNVSVGYDEKTPIIQQLSFQVHKGEIFGILGPNGSGKTTLLKAVSGLLSPSEGTITLHGKAIADYHSKELAQKMAVLPQTADTAFAYKVKEVVALGRYPHQKGWLASESQEDERVIREAMEQTDTWKFRNKPLQTLSGGERQRALLARALCQEPDLLLLDEPTNHLDISHQMQLLDALKDWTRTRQLTVVAILHDLNMASLYCDRVLLLNEGRMVDLNSPRQVMTEHQLANVYETKIRRNEHPTIPRPLVTFEPAAIRSKPSSPISELEVFTSEQLIKVTSSIRWKTLSSAVLGAGFKWHQTFVNRHVSKDYYCDDVEREFQTFLSNVGVDGTDALGMMTAAILEDVAITEATYESFKVRVFVTAGISNAVDAAKAHLRKRNEATVGTINTWVFIEGTLPDAAYVQALMTATEAKGRALAEKEILDPVTGTLATGTSTDSVMIASSQTGTYFPYAGTITPLGQAIGKLVYDATIQAVTDNEKRRLER	not soluble
MSLKVAVIGAGAMGGLYGAYLSRKNDVYMIDINEKVVKSINENGLIIYERENNKKEKFLVSAFTDSSNLGPMDLVIIFVKNLYTTSALKNNLNLFSDSTLVITLQNGAGNDRDLEKFIKKENILIGTTEHSCSILETGEVSHNQEGITNIGMLVYNDNIIKRISDEFKACSLKTEVYQNIQEIIWSKLFINMALNSTTAILNCKVGYLEKSKDASEIVQSILSEAVDVAIADGTFFNKKEVIDKVQKCIREDLPNAITSMNQDVSNKRLTEIDHINGAVANLAKLYKIPTPYNDCIIHIIHALEGLYNEGHHHHHH	soluble
GPGSMSAAACSWRHTEWTPYEVLNVPPSAPIGDIRAAFKCMALHTHPDKATVTTSARRASGSGATSCSEFPVSFHIVKEASEMLLDPYLRAAYDAARSQALTREVGAISDTYSLMDDFVRVRMDGDESDRQRVHVYQRECRCGGVYEVAVFPEAPAGSGEDEDVPLTYSARTLRCECDSCSLVVEVVA	soluble
